Measurements reported in publication doi:10.1101/2024.11.27.625625 (bioRxiv, 2024).

T1: TolR with an octahistidine-tag at the C-terminus (E. coli, UniProt P0ABV6 1-142)
T1 sequence: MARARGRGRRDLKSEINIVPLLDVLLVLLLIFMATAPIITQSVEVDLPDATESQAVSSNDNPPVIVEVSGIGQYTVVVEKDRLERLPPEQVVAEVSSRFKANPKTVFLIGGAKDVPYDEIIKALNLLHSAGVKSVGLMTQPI

B1: TolQ (natural protein, E. coli)
chain: MTDMNILDLFLKASLLVKLIMLILIGFSIASWAIIIQRTRILNAAAREAEAFEDKFWSGIELSRLYQESQGKRDNLTGSEQIFYSGFKEFVRLHRANSHAPEAVVEGASRAMRISMNRELENLETHIPFLGTVGSISPYIGLFGTVWGIMHAFIALGAVKQATLQMVAPGIAEALIATAIGLFAAIPAVMAYNRLNQRVNKLELNYDNFMEEFTAILHRQAFTVSESNKG
B2: TolA (natural protein, E. coli, UniProt P19934 1-421, looked up)
chain: MSKATEQNDKLKRAIIISAVLHVILFAALIWSSFDENIEASAGGGGGSSIDAVMVDSGAVVEQYKRMQSQESSAKRSDEQRKMKEQQAAEELREKQAAEQERLKQLEKERLAAQEQKKQAEEAAKQAELKQKQAEEAAAKAAADAKAKAEADAKAAEEAAKKAAADAKKKAEAEAAKAAAEAQKKAEAAAAALKKKAEAAEAAAAEARKKAATEAAEKAKAEAEKKAAAEKAAADKKAAAEKAAADKKAAEKAAAEKAAADKKAAAEKAAADKKAAAAKAAAEKAAAAKAAAEADDIFGELSSGKNAPKTGGGAKGNNASPAGSGNTKNNGASGADINNYAGQIKSAIESKFYDASSYAGKTCTLRIKLAPDGMLLDIKPEGGDPALCQAALAAAKLAKIPKPPSQAVYEVFKNAPLDFKP

Tests used:
cryo-EM structure = biological target: the molecule itself; test: cryo-EM structure
[1] = biological target: T1, TolR with an octahistidine-tag at the …; test: co-purification
TolQ = biological target: B1; test: co-purification

stoichiometry N [1] | stoichiometry N (TolQ) | Binder | stoichiometry N (cryo-EM structure)
– | – | B1 | 5
~1.5 TolR per TolA | ~4.5 TolQ per TolA | B2 | –
